Consider four molecules from article PMC5440646 (2017).

As a reminder, the Kd is the free concentration of one partner at which half of the binding sites on the other are occupied at equilibrium, for simple one-to-one binding. A lower Kd goes with tighter binding.

Holding throughout (assay): SPR
(In general: SPR reads the build-up and loss of mass on a sensor chip optically.)

For experiment [1], the target named is T1, GADS SH2 domain, His-tagged (UniProt O75791 58-149).
T1 chain: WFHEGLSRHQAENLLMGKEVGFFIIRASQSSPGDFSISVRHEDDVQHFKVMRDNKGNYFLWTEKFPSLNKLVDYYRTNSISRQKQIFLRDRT

The target of experiment [2] is T2, SLP-76 SH2 domain, His-tagged (UniProt Q13094 422-530).
T2 chain: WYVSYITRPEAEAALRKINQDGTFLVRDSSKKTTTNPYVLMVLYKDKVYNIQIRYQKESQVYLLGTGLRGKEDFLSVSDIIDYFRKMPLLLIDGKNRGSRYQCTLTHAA

A further experiment deals with T3, CD28 pYMN peptide (Homo sapiens, UniProt P10747).
T3 chain: LLHSD[pY]MNMTPRR

The next experiment concerns the target T4, CD6 long pY629 peptide (Homo sapiens, UniProt P30203, pY629).
T4 chain: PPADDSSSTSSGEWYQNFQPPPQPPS

Where no end group is shown, it is not given here. [ ]: non-standard residue; d: D form. The star is where a group is joined. Biotin = O=C1N[C@H]2[C@H](CS[C@H]2CCCCC(=O)*)N1; pY = N[C@@H](Cc1ccc(OP(=O)(O)O)cc1)C(=O)O

Take Biotin-STSSGEW[pY]QNFQPPPQPPSEEQFGCPGSPSPQPDSTDNDDYDDISAA [long CD6 peptide phosphorylated at Y629]: the Kd in experiment [1] worked out at 1000 nM.
Regarding Biotin-STSSGEW[pY]QNFQPPPQPPSEEQFGCPGSPSPQPDSTDNDD[pY]DDISAA [long CD6 peptide phosphorylated at Y629 and Y662], the Kd in experiment [2] and in experiment [1] was 1000 nM each time.

B1: GADS SH2 (protein)
chain: FPKWFHEGLSRHQAENLLMGKEVGFFIIRASQSSPGDFSISVRHEDDVQHFKVMRDNKGNYFLWTEKFPSLNKLVDYYRTNSISRQKQIFLRDRTRED
For the molecule B1, the values for the Kd in the experiment with CD28 pYMN peptide and with CD6 long pY629 peptide were approximately 2500 nM and approximately 400 nM, respectively.
As for Biotin-STSSGEWYQNFQPPPQPPSEEQFGCPGSPSPQPDSTDNDD[pY]DDISAA [long CD6 peptide phosphorylated at Y662], the affinity in experiment [2], expressed as Kd, was 1000 nM.
